This series has as its target T1, mKu (mycobacterial Ku) (Mycobacterium tuberculosis, UniProt P9WKD9 1-273).
T1 sequence: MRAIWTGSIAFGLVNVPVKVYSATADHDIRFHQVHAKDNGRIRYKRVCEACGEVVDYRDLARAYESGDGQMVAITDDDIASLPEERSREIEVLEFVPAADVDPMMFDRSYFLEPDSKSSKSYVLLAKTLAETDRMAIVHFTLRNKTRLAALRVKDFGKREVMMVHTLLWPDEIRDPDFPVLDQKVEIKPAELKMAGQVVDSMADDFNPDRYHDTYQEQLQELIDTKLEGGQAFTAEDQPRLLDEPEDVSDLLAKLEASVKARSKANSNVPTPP
The series is described as follows: SPR. A general note: In SPR one partner is held on a chip, and binding of the other changes the refractive index at the surface.

B1: 29 bp dsDNA (dsDNA)
DNA 1: CGAACCAGCTGGCGCATAGCCGCGCTATC
DNA 2: GATAGCGCGGCTATGCGCCAGCTGGTTCG
Turning to B1, the “apparent K (half saturation)” value came out at 17.9 ± 4.58 nM.

B2: 20 bp dsDNA (dsDNA)
DNA 1: GTCGTAGCCCACCTGACCGT
DNA 2: ACGGTCAGGTGGGCTACGAC
For the molecule B2, the “apparent K (half saturation)” value worked out at 10.8 ± 2.47 nM.

The record behind these values is doi:10.1101/2023.06.07.543977.
